Assay results taken from patent US20050158748.

How the values were obtained:
[1] = target: ribosomal protein S6 (in purified 40S ribosomal subunits from liver)
[2] = target: synthetic peptide representing C-terminus of S6 protein

B1: EE-tag/p70β^S6k (p70β-II isoform, N-terminal EE-tag) (protein)
chain: MAAVFDLDLETEEGSEGEGEPELSPADACPLAELRAAGLEPVGHYEEVELTETSVNVGPERIGPHCFELLRVLGKGGYGKVFQVRKVQGTNLGKIYAMKVLRKAKIVRNAKDTAHTRAERNILESVKHPFIVELAYAFQTGGKLYLILECLSGGELFTHLEREGIFLEDTACFYLAEITLALGHLHSQGIIYRDLKPENIMLSSQGHIKLTDFGLCKESIHEGAVTHTFCGTIEYMAPEILVRSGHNRAVDWWSLGALMYDMLTGSPPFTAENRKKTMDKIIRGKLALPPYLTPDARDLVKKFLKRNPSQRIGGGPGDAADVQRHPFFRHMNWDDLLAWRVDPPFRPCLQSEEDVSQFDTRFTRQTPVDSPDDTALSESANQAFLGFTYVAPSVLDSIKEGFSFQPKLRSPRRLNSSPRVPVSPLKFSPFEGFRPSPSLPEPTELPLPPLLPPPPPSTTAPLPIRPPSGTKKSKRGRGRPGR
in vitro kinase reaction: phosphorylation of S6 protein in 40S subunits [1]: p70β^S6k (p70β-II isoform) phosphorylates the S6 protein in vitro nearly as efficiently as p70α^S6k | in vitro kinase reaction: phosphorylation of the synthetic peptide [2]: p70β^S6k (p70β-II isoform) also phosphorylates this peptide but with slightly lower efficiency than observed with p70α^S6k
